Experimental findings from patent publication US5789539, “Chemokine-like proteins and methods of use” (Repligen Corporation, dated 1998) are described below.

Where a chain is given by its changes, count along the chain named.

Assay [1] deals with T1, human neutrophil IL-8 receptor subtype B (huIL8Rb) (human, UniProt P25025). Kind of assay: competition with 0.5 nM 125I-labeled IL-8 on CHO cells expressing huIL8Rb; "NC" indicates no competition. As to the method:
(§1) receptor subtype B (huIL8Rb), was used in binding assays to test mutant chemokine binding. Approximately 5×10^3 cells were plated in the wells of a 96 well plate and grown for 2 to 3 days. The medium was replaced with phosphate-buffered saline (PBS) supplemented with 0.5% BSA (PBS/BSA), 0.5 nM ^125I-labeled IL-8, and increasing concentrations of the various unlabeled chemokines. The plates were incubated on ice for 90 minutes, the binding mixture was removed, and the cells were washed three times with ice-cold PBS/BSA. The cells were removed from the plates with trypsin-EDTA (Gibco), and the radioactivity of the entire contents of the well determined by gamma counting. Binding of each chemokine to untransfected cells, or binding in the presence of 2 μM unlabeled IL-8, was determined and the value obtained used as the background value. Binding data was plotted as percent of mean specific binding (total binding minus background/specific binding with no competitor). […] "NC" indicates no competition.

For assay [2], the target named is T1, human neutrophil IL-8 receptor subtype …. Kind of assay: competition with 0.5 nM 125I-labeled IL-8 on CHO cells expressing huIL8Rb. As to the method:
as §1

The Ki is a measure of affinity in units of concentration, obtained from inhibition or displacement.

B1: wild-type platelet factor 4 (PF4) (ligand)
chain: EAEEDGDLQCLCVKTTSQVRPRHITSLEVIKAGPHCPTAQLIATLKNGRKICLDLQAPLYKKIIKKLLES
For the molecule B1, the binding result in assay [1] is given as “no binding”.

B2: PF4M1 (ligand)
chain: B1 chain with Q9R
With B2, the affinity in assay [2] corresponds to a Ki of 839 nM.

B3: PF4M2 (ligand)
chain: MSAKELRCQCVKTTSQVRPRHITSLEVIKAGPHCPTAQLIATLKNGRKICLDLQAPLYKKIIKKLLES
In assay [2], B3 displayed a Ki of 52 nM.
